Reference: US20150274828A1 (SHANGHAI SERUM BIOTECHNOLOGY, published 2015)
Positions count from the first letter of the chain named.

Columns and labels:
[1] = target: T1, Recombinant human epidermal growth factor (EGF) (human, UniProt P01133 971-1023); assay: ELISA, EGF coated at 1 µg/well, antibody without EGFR-Fc, HRP goat anti-human IgG
T1 construct: Coated on the ELISA plate; also called EGR

[2] = target: T2, EGFR on A431 cell surface (human, UniProt P00533 25-1210); assay: flow cytometry on A431 cells, antibody 0.03 µg/ml, FITC anti-human IgG
T2 construct: whole, on cells; also called natural EGFR on surface of A431 cell

[3] = target: T3, EGFR-Fc fusion protein (recombinant EGFR extracellular region-Fc) (human, UniProt P00533 25-645); assay: BLI Fortebio, method of Example 5 (biotinylated EGFR-Fc on streptavidin sensor)
T3 construct: extracellular domain; not shown: Fc part supplied by vector pABG1

[4] = target: T3, EGFR-Fc fusion protein (recombinant …); assay: BLI ForteBio QKe, biotinylated EGFR-Fc on streptavidin sensor, antibody 20 nM; fold reduction of affinity, parent Ame55 = 1;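 note: parent antibody affinity set as 1, with values giving the fold drop in affinity of each mutant antibody relative to that parent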
[5] = target: T3, EGFR-Fc fusion protein (recombinant …); assay: BLI ForteBio QKe, biotinylated EGFR-Fc on streptavidin sensor
[6] = target: T3, EGFR-Fc fusion protein (recombinant …); assay: phage ELISA, EGFR-Fc coated, anti-M13-HRP

T1 sequence (P01133 971-1023 limits assumed): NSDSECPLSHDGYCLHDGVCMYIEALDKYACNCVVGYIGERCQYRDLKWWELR

B1: Ame55 intact antibody (IgG1) (antibody, V domains shown)
VH: EVQLVQSGAEVKKPGESLKISCKGSGYSFTSYWIGWVRQMPGKGLEWMGIIYPGDSDTRYSPSFQGQVTISADKSISTAYLQWSSLKASDTAMYYCARGIIYPSNVAVWGQGTLVTVSS
VL: SYELTQPPSVSVAPGQTARITCSGDALGDKYASWYQQKPGQAPVLVIYEDSKRPSGIPERFSGSNSGNTATLTISGTQAEDEADYYCSVWDGDWGMPVFGGGTKLTVLG
notes: Variable regions cloned into vectors pABL and pABG1 and expressed in HEK293T as intact IgG1 with lambda light chain; also called Amet55; parent antibody Ame55
B1: no binding [1]; binds [2].

B2: Ame-9B (antibody, V domains shown)
VH: EVQLVESGGGLVQPGGSLRLSCAASGFTFSSYAMSWVRQAPGKGLEWVSAITGTGGETYYADSVKGRFTISRDNSKNTLYLQMNSLRAEDTAVYYCARGWSWTGVDPWGQGTLVTVSS
VL: B1 VL
notes: Expressed in HEK293, purified on Protein A; also called mutant Ame-9B
B2 was tested, and the “fold decrease of affinity (against Ame55)” value [3] was ~6 times.

B3: Ame55 mutant, light chain G28P (antibody, V domains shown)
VH: B1 VH
VL: B1 VL with G28P
notes: Mutant of Ame55
In the case of B3, the Affinity change [4] is reported as > 100 fold.

B4: Ame55 mutant, light chain 97A (antibody, V domains shown)
VH: B1 VH
VL: B1 VL with P97A
notes: Mutant of Ame55
With B4 the Affinity change [4] was > 10 fold.

B5: AmeA2 (Ame55 mutant, light chain 89A(A2)) (antibody, V domains shown)
VH: B1 VH
VL: B1 VL with V89A
notes: Mutant of Ame55
For B5, the Affinity change [4] was 0.25 fold.

B6: AmeA1C1 (the mutated light chain has Gly at site 26 and Ser at site 89) (antibody, V domains shown)
VH: B1 VH
VL: B1 VL with A26G, V89S
notes: Mutant of Ame55; also called 26G + 89S
For B6, the Affinity change [4] was < 0.3 fold.

B7: Ame55 mutant, light chain 89S(A1) (antibody, V domains shown)
VH: B1 VH
VL: B1 VL with V89S
notes: Mutant of Ame55
B7 was tested, and the Affinity change [4] was 0.5 fold and the “fold increase of affinity against parent antibody Ame55” value [5] was 4 times.

B8: AmeA1C3 (the mutated light chain has Lys at site 26 and Ser at site 89) (antibody, V domains shown)
VH: B1 VH
VL: B1 VL with A26K, V89S
notes: Mutant of Ame55; also called 26K + 89S
For B8, the Affinity change [4] was < 0.2 fold.

B9: AmeA2C1 (the mutated light chain has Gly at site 26 and Ala at site 89) (antibody, V domains shown)
VH: B1 VH
VL: B1 VL with A26G, V89A
notes: Mutant of Ame55; also called 26G + 89A
For B9, the Affinity change [4] was < 0.2 fold.

B10: AmeA2C3 (the mutated light chain has Lys at site 26 and Ala at site 89) (antibody, V domains shown)
VH: B1 VH
VL: B1 VL with A26K, V89A
notes: Mutant of Ame55; also called 26K + 89A
With B10 the Affinity change [4] was < 0.1 fold.

B11: Ame55 phage single chain antibody (scFv)
scFv: SYELTQPPSVSVAPGQTARITCSGDALGDKYASWYQQKPGQAPVLVIYEDSKRPSGIPERFSGSNSGNTATLTISGTQAEDEADYYCSVWDGDWGMPVFGGGTKLTVLGSGGSTITSYNVYYTKLSSSGSEVQLVQSGAEVKKPGESLKISCKGSGYSFTSYWIGWVRQMPGKGLEWMGIIYPGDSDTRYSPSFQGQVTISADKSISTAYLQWSSLKASDTAMYYCARGIIYPSNVAVWGQGTLVTVSS
notes: the phage coat fusion is not described; also called Ame55 phage antibody; Ame55 single chain antibody
B11: binds [6].
